Data taken from patent US11214614B2, “LTBP complex-specific inhibitors of TGFβ and uses thereof” (Scholar Rock, Inc., priority 2019, dated 2022).
Where a chain is given by its changes, count along the chain named.

B1: SR-AB42: cycle 3 antibody, lineage SR-AB23; CDRs SEQ ID NO: 166-171; HCVR SEQ ID NO: 318, LCVR SEQ ID NO: 319 (antibody, V domains shown)
VH: QVQLVESGGGVVQPGRSLRLSCAASGFTFRSYVMHWVRQAPGKGLEWVAVISHEGSLKYYADSVKGRFTISRDNSKNTLYLQMNSLRAEDTAVYYCARPRIAARRGGFGYWGQGTLVTVSS
VL: NFMLTQPHSVSESPGKTVTISCTRSSGNIDNNYVQWYQQRPGSSPTTVIYEDNQRPSGVPDRFSGSIDSSSNSASLTISGLKTEDEADYYCQSYDYDTQGVVFGGGTKLTVL
B2: SR-AB22: second-round (CDR-H3 mutagenesis) antibody, lineage SR-AB14; CDRs SEQ ID NO: 108-113 (antibody, V domains shown)
VH: B1 VH with R98V
VL: B1 VL with Y96S, T98N
B3: SR-AB23: second-round (CDR-H3 mutagenesis) antibody, lineage SR-AB14; CDRs SEQ ID NO: 116-121 (antibody, V domains shown)
VH: B1 VH
VL: B1 VL with Y96S, T98N
B4: SR-AB63: cycle 3 antibody, lineage SR-AB26; CDRs SEQ ID NO: 292-297; HCVR SEQ ID NO: 360, LCVR SEQ ID NO: 361 (antibody, V domains shown)
VH: QLQLQESGPGLVKPSETLSLTCTVSGGSIRSSSYYWGWIRQPPGKGLEWIGSISYSATTYYNPSLKSRVTISVDTSKNQFSLKLSSVTAADTAVYYCAGDPSYDSIAGMQVWGQGTTVTVSS
VL: DIQLTQSPSSLSASVGDRVTITCRASQSISSYLNWYQQKPGKAPKLLIYAASNLQSGVPSRFSGSGSGTDFTLTISSLQPEDFATYYCQQSFDWPLTFGGGTKVEIK

Experiments:
[1] = target: huLTBP1 proTGFβ1 (Homo sapiens, UniProt P01137+Q14766); assay: SPR (Biacore 8K) monovalent binding kinetics of Fabs, biotinylated antigen captured; design: biotin (complex biotinylated); details: for KD of Fab fragments / Binding of human Fabs for huLTBP1 proTGFβ1 and huLTBP3 proTGFβ1 (FIGS. 23, 24): SPR; for KD of Fab fragments: antigen not given; for Monovalent affinities (FIGS. 23, 24): figure legends
How it was run: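 Biotinylated proTGFβ1 complexes (10 nM) captured on Biotin CAPture chip; Fabs injected at 10, 5, 2.5, 1.25, 0.625 nM (0 nM reference), 120 s contact, 900 s dissociation, multi-cycle with regeneration. HBS-EP+ pH 7.4; global 1:1 fit for ka, kd, KD.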

[2] = test system: phosphorylation of Smad2/3 in kidney of Col4a3−/− mice; assay: Alport (Col4a3−/−) mouse model, pSMAD2/3 ELISA on whole kidney lysates; type: in vivo; details: single dose 30 mg/kg i.p., 48 hours prior to sacrifice, 11 week old Col4a3−/− mice
Source text: The murine Col4a3 −/− model is an established genetic model of autosomal recessive Alport syndrome. Alport mice lack a functional collagen 4A3 gene (Col4A3−/−) and therefore cannot form normal type IV collagen trimers, which require a3, a4, and a5 chains. Col4a3−/− mice develop fibrosis in the kidney consistent with renal fibrosis in human patients, including interstitial fibrosis and tubular atrophy, and Col4a3−/− mice develop end-stage renal disease (ESRD) between 8 and 30 weeks of age, depending on the genetic background of the mouse. The structural and functional manifestation of renal pathology in Col4a3−/− mice, combined with the progression to ESRD make Col4a3−/− mice an ideal model to understand kidney fibrosis. […]
It is well documented that TGFβ receptor activation leads to a downstream signaling cascade of intracellular events, including phosphorylation of Smad2/3. Therefore, the ability of SR-AB42 and SR-AB63 treatment to inhibit TGFβ signaling was assessed in kidney lysate samples by measuring relative phosphorylation levels of Smad2/3 as assayed by ELISA (Cell Signaling Technologies) according to the manufacturer's instructions. […] FIG. 20B is a graph showing the amount of phosphorylated SMAD2/3 (pSMAD2/3) as determined by ELISA and FIG. 20C is a graph showing the amount of total […] (tSMAD2/3) protein as determined by ELISA.

[3] = test system: proTGFβ1 presented by endogenous LTBP1/3 in LN229 cells; assay: Endogenous LTBP caga assay: LN229 cells transfected with human proTGFβ1 only, CAGA12 luciferase reporter cells; type: cell-based; details: endogenous presenting molecules
Sequence of proTGFβ1 presented by endogenous LTBP1/3 in LN229 cells (P01137 30-390): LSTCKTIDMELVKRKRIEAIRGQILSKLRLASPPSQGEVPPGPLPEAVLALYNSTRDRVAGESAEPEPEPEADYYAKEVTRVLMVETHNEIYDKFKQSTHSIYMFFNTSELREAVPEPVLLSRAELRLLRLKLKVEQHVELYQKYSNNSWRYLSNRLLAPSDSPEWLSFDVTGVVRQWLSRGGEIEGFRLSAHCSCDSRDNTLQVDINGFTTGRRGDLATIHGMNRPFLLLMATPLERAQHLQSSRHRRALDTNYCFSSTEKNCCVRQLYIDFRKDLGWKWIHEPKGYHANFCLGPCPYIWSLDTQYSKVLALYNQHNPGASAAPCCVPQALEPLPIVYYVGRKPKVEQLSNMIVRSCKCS

Sequence of huLTBP1 proTGFβ1 (P01137 30-390): as above
Sequence of huLTBP1 proTGFβ1 (Q14766 347-1721 limits assumed): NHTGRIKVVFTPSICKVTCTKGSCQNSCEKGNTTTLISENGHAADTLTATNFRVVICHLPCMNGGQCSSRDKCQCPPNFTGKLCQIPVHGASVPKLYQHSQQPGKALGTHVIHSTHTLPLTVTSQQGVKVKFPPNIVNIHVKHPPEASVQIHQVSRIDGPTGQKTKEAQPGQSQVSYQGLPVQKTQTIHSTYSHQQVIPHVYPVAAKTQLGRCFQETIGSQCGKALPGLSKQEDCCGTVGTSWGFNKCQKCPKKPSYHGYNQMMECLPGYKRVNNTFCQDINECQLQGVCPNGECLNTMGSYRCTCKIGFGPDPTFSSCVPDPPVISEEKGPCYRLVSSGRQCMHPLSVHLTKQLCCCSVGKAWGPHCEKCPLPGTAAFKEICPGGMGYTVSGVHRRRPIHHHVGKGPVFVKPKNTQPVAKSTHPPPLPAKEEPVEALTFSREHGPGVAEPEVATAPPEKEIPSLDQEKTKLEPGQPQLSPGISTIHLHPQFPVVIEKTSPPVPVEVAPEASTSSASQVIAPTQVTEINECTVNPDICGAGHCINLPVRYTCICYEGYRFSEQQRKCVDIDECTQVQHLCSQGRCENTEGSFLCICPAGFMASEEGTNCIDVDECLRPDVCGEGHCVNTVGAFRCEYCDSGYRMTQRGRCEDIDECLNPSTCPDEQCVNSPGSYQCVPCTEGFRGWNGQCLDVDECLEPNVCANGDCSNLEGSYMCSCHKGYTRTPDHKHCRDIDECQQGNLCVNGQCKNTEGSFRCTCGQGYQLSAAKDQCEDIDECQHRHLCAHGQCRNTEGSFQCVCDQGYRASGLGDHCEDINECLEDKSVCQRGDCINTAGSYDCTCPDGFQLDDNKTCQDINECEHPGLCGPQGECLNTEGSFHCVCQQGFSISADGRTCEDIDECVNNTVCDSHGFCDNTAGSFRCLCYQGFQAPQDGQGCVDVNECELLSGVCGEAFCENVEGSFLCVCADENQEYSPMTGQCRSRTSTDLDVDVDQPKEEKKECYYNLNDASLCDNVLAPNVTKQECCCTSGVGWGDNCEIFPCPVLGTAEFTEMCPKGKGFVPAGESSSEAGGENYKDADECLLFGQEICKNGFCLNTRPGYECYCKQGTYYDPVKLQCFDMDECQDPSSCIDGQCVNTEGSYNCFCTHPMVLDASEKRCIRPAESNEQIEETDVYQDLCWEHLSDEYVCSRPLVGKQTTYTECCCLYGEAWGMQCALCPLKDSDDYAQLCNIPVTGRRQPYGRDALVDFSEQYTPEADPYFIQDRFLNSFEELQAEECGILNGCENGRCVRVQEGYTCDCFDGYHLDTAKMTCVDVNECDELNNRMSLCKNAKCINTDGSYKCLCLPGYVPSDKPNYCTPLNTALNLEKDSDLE

Molecule | KD of Fab fragments [1] | Binding of human Fabs for huLTBP1 proTGFβ1 and huLTBP3 proTGFβ1 (FIGS. 23, 24) [1] | Monovalent affinities (FIGS. 23, 24) [1] | pSmad2/3 signaling (pSMAD2/3:tSMAD2/3) in whole kidney lysates [2] | Inhibition of TGFβ1 activation (TGFβ activity, luciferase) [3]
B1 | sub-nanomolar | context-selective binding | picomolar monovalent affinities | significantly inhibit pSmad2/3 signaling | –
B2 | – | – | – | – | improved potency
B3 | – | – | – | – | improved potency
B4 | sub-nanomolar | context-selective binding | picomolar monovalent affinities | significantly inhibit pSmad2/3 signaling | –
